Experimental findings from publication PMC2912450 are described below.

In the assay the target is His-tagged FliK (Salmonella) (UniProt P26416). As to the kind of experiment: SPR. Background: In SPR one partner is held on a chip, and binding of the other changes the refractive index at the surface.

As usually defined, the Kd is a measure of binding affinity in units of concentration. The low end stands for tighter binding, the high end for weaker binding. Consider FlhBc(N269A) (domain or fragment), for which the Kd was 10.5 µM.

As to FlhBc(P270A) (domain or fragment), the Kd was found to be 1.6 µM.
